Results reported in paper PMC3376194.

Substrate: CCCCC/C=C\C/C=C\C/C=C\C/C=C\CCCC(=O)O
Assay: cells, lysate or membranes named
Conditions: other: R53H, 0.025% Tween 20, 37 °C

B1: PGHS-1 R53H variant (Homo sapiens; R53H) (protein)
chain: ADPGAPTPVNPCCYYPCQHQGICVRFGLDHYQCDCTRTGYSGPNCTIPGLWTWLRNSLRPSPSFTHFLLTHGRWFWEFVNATFIREMLMRLVLTVRSNLIPSPPTYNSAHDYISWESFSNVSYYTRILPSVPKDCPTPMGTKGKKQLPDAQLLARRFLLRRKFIPDPQGTNLMFAFFAQHFTHQFFKTSGKMGPGFTKALGHGVDLGHIYGDNLERQYQLRLFKDGKLKYQVLDGEMYPPSVEEAPVLMHYPRGIPPQSQMAVGQEVFGLLPGLMLYATLWLREHNRVCDLLKAEHPTWGDEQLFQTTRLILIGETIKIVIEEYVQQLSGYFLQLKFDPELLFGVQFQYRNRIAMEFNHLYHWHPLMPDSFKVGSQEYSYEQFLFNTSMLVDYGVEALVDAFSRQIAGRIGGGRNMDHHILHVAVDVIRESREMRLQPFNEYRKRFGMKPYTSFQELVGEKEMAAELEELYGDIDALEFYPGLLLEKCHPNSIFGESMIEIGAPFSLKGLLGNPICSPEYWKPSTFGGEVGFNIVKTATLKKLVCLNTKTCPYVSFRVPDASQDDGPAVERPSTEL
  Km: 1.9 ± 0.2 µM
